Square brackets hold non-standard residues; d marks the D form.
T1: islet amyloid polypeptide (IAPP) (UniProt P10997 34-70, limits assumed)
T1 peptide (looked up): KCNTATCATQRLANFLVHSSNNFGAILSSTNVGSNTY


Legend:
Assay in all cases: cell-based or functional assay
[1] = target: T2, Aβ42 (UniProt P05067 672-713)
[2] = target: T2, Aβ42; remark: listed apart in the source
[3] = target: T1, islet amyloid polypeptide (IAPP)

T2 sequence (P05067 672-713 limits assumed): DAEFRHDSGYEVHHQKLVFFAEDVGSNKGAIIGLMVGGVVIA

% Inhibition 1:10 (AP peptide:Abeta42), ThT assay [1] [%]	% inhibition of fibril formation (ThT), AP:Aβ42 1:1 [2] [%]	% inhibition of fibril formation (ThT), AP:Aβ42 1:10 [2] [%]	% inhibition of fibril formation (ThT), AP:Aβ42 1:100 [2] [%]	% inhibition of IAPP amyloid formation, Ratio AP:IAPP 1:1 [3] [%]	% inhibition of IAPP amyloid formation, Ratio AP:IAPP 4:1 [3] [%]	% inhibition of IAPP amyloid formation, Ratio AP:IAPP 10:1 [3] [%]	Binder
75							Ac-[dR]G[dE]M[dN]L[dS]W[dM][dN][dE][dY][dY]G[dW]T[dM]N[dM]K[dC]G[dR]-NH2 (also: homodimer linked by MalPEG1, linker at 21 via MalPEG1, other end not in the chain) [AP527d (MalPEG1)]
14	54.2	14.3	0				Ac-[dR]G[dE]M[dN]L[dS]W[dM][dN][dE][dY][dY]G[dW]T[dM]N[dM]K[dC]G[dR]-NH2 (SMILES CSCC[C@H](NC(=O)[C@@H](CCC(=O)O)NC(=O)CNC(=O)[C@@H](CCCNC(=N)N)NC(C)=O)C(=O)N[C@H](CC(N)=O)C(=O)N[C@@H](CC(C)C)C(=O)N[C@H](CO)C(=O)N[C@@H](Cc1c[nH]c2ccccc12)C(=O)N[C@H](CCSC)C(=O)N[C@H](CC(N)=O)C(=O)N[C@H](CCC(=O)O)C(=O)N[C@H](Cc1ccc(O)cc1)C(=O)N[C@H](Cc1ccc(O)cc1)C(=O)NCC(=O)N[C@H](Cc1c[nH]c2ccccc12)C(=O)N[C@H](C(=O)N[C@H](CCSC)C(=O)N[C@@H](CC(N)=O)C(=O)N[C@H](CCSC)C(=O)N[C@@H](CCCCN)C(=O)N[C@H](CS)C(=O)NCC(=O)N[C@H](CCCNC(=N)N)C(N)=O)[C@@H](C)O) [AP527m]

The next lines start with the binder.

Binder	% Inhibition 1:10 (AP peptide:Abeta42), ThT assay [1] [%]	% inhibition of fibril formation (ThT), AP:Aβ42 1:1 [2] [%]	% inhibition of fibril formation (ThT), AP:Aβ42 1:10 [2] [%]	% inhibition of fibril formation (ThT), AP:Aβ42 1:100 [2] [%]	% inhibition of IAPP amyloid formation, Ratio AP:IAPP 1:1 [3] [%]	% inhibition of IAPP amyloid formation, Ratio AP:IAPP 4:1 [3] [%]	% inhibition of IAPP amyloid formation, Ratio AP:IAPP 10:1 [3] [%]
Ac-[dR]G[dE]M[dN]L[dS]W[dM][dN][dE][dY][dY]G[dW]T[dM]N[dM]K[dC]G[dR]-NH2 (also: homodimer: D-Cys21 disulfide-bonded to D-Cys21 of other copy) [AP527d]	96	100	96.2	86.4			
Ac-RGE[dM]N[dL]S[dW]MNEYSGW[dT]M[dN]L[dK]MGR-NH2 (SMILES CSCC[C@H](NC(=O)[C@@H](CCCCN)NC(=O)[C@H](CC(C)C)NC(=O)[C@@H](CC(N)=O)NC(=O)[C@H](CCSC)NC(=O)[C@H](NC(=O)[C@H](Cc1c[nH]c2ccccc12)NC(=O)CNC(=O)[C@H](CO)NC(=O)[C@H](Cc1ccc(O)cc1)NC(=O)[C@H](CCC(=O)O)NC(=O)[C@H](CC(N)=O)NC(=O)[C@H](CCSC)NC(=O)[C@@H](Cc1c[nH]c2ccccc12)NC(=O)[C@H](CO)NC(=O)[C@@H](CC(C)C)NC(=O)[C@H](CC(N)=O)NC(=O)[C@@H](CCSC)NC(=O)[C@H](CCC(=O)O)NC(=O)CNC(=O)[C@H](CCCNC(=N)N)NC(C)=O)[C@H](C)O)C(=O)NCC(=O)N[C@@H](CCCNC(=N)N)C(N)=O) [AP090]		69.7	0		40	42	65
Ac-[dR]G[dE]M[dN]L[dS]W[dM][dN][dE][dY][dY]G[dW]T[dM]N[dM]K[dC]G[dR]-NH2 (also: homodimer linked by BMOE, linker at 21 via BMOE, other end not in the chain) [AP527d (BMOE)]	80						
